Laboratory results as given in patent US20210155712A1.

Legend:
[1] = target: recombinant human HER3 (human) (UniProt P21860); experiment: BLI (Octet QK384), antibody on AHC sensors, His-tagged human HER3 in solution, absence of human NRG1
[2] = target: human HER3 expressed on cells (human) (UniProt P21860); experiment: flow cytometry, HEK293T HER3 O/E cells, 10 ug antibody, FITC channel
[3] = target: human HER3:human NRG1 complex (human) (UniProt Q02297); experiment: BLI (Octet QK384), antibody on AHC sensors, human HER3-NRG1 complex (1:1 molar ratio) in solution, presence of human NRG1

anti-HER3 antibody clone LJM716, sequence (VH): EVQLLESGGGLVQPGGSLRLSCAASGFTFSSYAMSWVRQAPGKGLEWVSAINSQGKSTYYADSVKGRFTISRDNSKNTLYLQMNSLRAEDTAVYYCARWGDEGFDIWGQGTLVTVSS
anti-HER3 antibody clone LJM716, sequence (VL): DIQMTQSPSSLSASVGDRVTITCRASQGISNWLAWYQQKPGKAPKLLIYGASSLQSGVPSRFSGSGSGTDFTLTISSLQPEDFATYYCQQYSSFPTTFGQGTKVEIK

- Kd [1]: < 0.001 nM
- % Parent (HER3 positive) [2]: 74.4%
- Kd [3]: 16.8 nM
Substance: anti-HER3 antibody clone LJM716
